Drawing on patent publication US7022488, this text covers increase in cAMP levels after pertussis toxin treatment and increase of the isoproterenol cAMP response after pertussis toxin treatment for 2 substances.

For one experiment, the target named is Gs. Description: cell-based or functional assay.
Another experiment concerns the target Gi proteins. Description: cell-based or functional assay.

As for “human umami taste receptor hT1R1/hT1R3 (from UniProt Q7RTX1 21-841; Q7RTX0 21-852)”, in the experiment with Gs, the increase in cAMP levels after pertussis toxin treatment turned out to be 25%.

Consider “β-adrenergic receptor (β2AR) (from UniProt P07550 1-413)”, for which the increase of the isoproterenol cAMP response after pertussis toxin treatment with Gi proteins is > 17 fold.
